What follows are sequences tested on Escherichia coli TOP10 (assay: shrunken log2 fold change of peptide-encoding DNA abundance (4.5 h post-induction vs induction); higher = less antimicrobial activity (less host growth inhibition)). Conditions: time post-induction: 4.5 h; library: site-saturation at positions 5, 18, 19, 20.
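Note: peptides expressed intracellularly from a pBAD plasmid library in pooled LB shake-flask culture, induced with 0.3% L-arabinose, DNA abundance read by NGS, three biological replicates, DESeq2 with apeglm shrinkage.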

| Sequence | shrunken log2 fold change |
| --- | --- |
| RRIRNRPPRLPRPRPRPYKSPRP | -0.00822 |
| RRIRNRPPRLPRPRPRPYLQPRP | -0.00906 |
| RRIRNRPPRLPRPRPRPYMWPRP | -0.328 |
| RRIRNRPPRLPRPRPRPYPIPRP | -0.0592 |
| RRIRNRPPRLPRPRPRPYPLPRP | -0.042 |
| RRIRNRPPRLPRPRPRPYQQPRP | -0.388 |
| RRIRNRPPRLPRPRPRPYQSPRP | -0.00256 |
| RRIRNRPPRLPRPRPRPYRKPRP | -0.0658 |
| RRIRNRPPRLPRPRPRPYRSPRP | -0.0179 |
| RRIRNRPPRLPRPRPRPYSAPRP | -1.37 |
| RRIRNRPPRLPRPRPRPYTFPRP | -0.0167 |
| RRIRNRPPRLPRPRPRPYTKPRP | -0.0607 |
| RRIRNRPPRLPRPRPRPYTLPRP | -0.288 |
| RRIRNRPPRLPRPRPRPYTNPRP | -0.424 |
| RRIRNRPPRLPRPRPRPYVAPRP | -0.931 |
| RRIRNRPPRLPRPRPRPYWNPRP | -0.108 |
| RRIRNRPPRLPRPRPRPYYDPRP | -0.0248 |
| RRIRNRPPRLPRPRPRPYYTPRP | -1.27 |
| RRIRPRPPRLPRPRPRPAASPRP | -0.0885 |
| RRIRPRPPRLPRPRPRPAAVPRP | 0.41 |
| RRIRPRPPRLPRPRPRPADQPRP | 0.00426 |
| RRIRPRPPRLPRPRPRPAEHPRP | 0.214 |
| RRIRPRPPRLPRPRPRPAEMPRP | 0.189 |
| RRIRPRPPRLPRPRPRPAESPRP | 0.44 |
| RRIRPRPPRLPRPRPRPAGHPRP | 0.0291 |

| Sequence | shrunken log2 fold change |
| --- | --- |
| RRIRPRPPRLPRPRPRPAHEPRP | 0.356 |
| RRIRPRPPRLPRPRPRPAHKPRP | -0.46 |
| RRIRPRPPRLPRPRPRPAIAPRP | 0.194 |
| RRIRPRPPRLPRPRPRPAIGPRP | -0.0136 |
| RRIRPRPPRLPRPRPRPAIPPRP | -0.0146 |
| RRIRPRPPRLPRPRPRPAMHPRP | 0.367 |
| RRIRPRPPRLPRPRPRPAMNPRP | 0.193 |
| RRIRPRPPRLPRPRPRPAMWPRP | 0.251 |
| RRIRPRPPRLPRPRPRPAPFPRP | 0.143 |
| RRIRPRPPRLPRPRPRPARIPRP | 0.14 |
| RRIRPRPPRLPRPRPRPARKPRP | 0.705 |
| RRIRPRPPRLPRPRPRPASAPRP | 0.441 |
| RRIRPRPPRLPRPRPRPASGPRP | 0.194 |
| RRIRPRPPRLPRPRPRPASWPRP | 0.362 |
| RRIRPRPPRLPRPRPRPAWDPRP | 0.431 |
| RRIRPRPPRLPRPRPRPAWRPRP | 0.645 |
| RRIRPRPPRLPRPRPRPAWSPRP | 0.152 |
| RRIRPRPPRLPRPRPRPAYLPRP | -0.317 |
| RRIRPRPPRLPRPRPRPAYVPRP | -0.241 |
| RRIRPRPPRLPRPRPRPCAMPRP | 0.0848 |
| RRIRPRPPRLPRPRPRPCCPPRP | -0.377 |
| RRIRPRPPRLPRPRPRPCFQPRP | -0.0314 |
| RRIRPRPPRLPRPRPRPCGFPRP | 0.183 |
| RRIRPRPPRLPRPRPRPCGIPRP | -0.0938 |
| RRIRPRPPRLPRPRPRPCHNPRP | 0.156 |

| Sequence | shrunken log2 fold change |
| --- | --- |
| RRIRPRPPRLPRPRPRPCIDPRP | -0.742 |
| RRIRPRPPRLPRPRPRPCLDPRP | -0.251 |
| RRIRPRPPRLPRPRPRPCLGPRP | -0.198 |
| RRIRPRPPRLPRPRPRPCLYPRP | -0.595 |
| RRIRPRPPRLPRPRPRPCMWPRP | 0.0459 |
| RRIRPRPPRLPRPRPRPCNSPRP | -0.276 |
| RRIRPRPPRLPRPRPRPCQNPRP | -0.0169 |
| RRIRPRPPRLPRPRPRPCRFPRP | 0.086 |
| RRIRPRPPRLPRPRPRPCSHPRP | -0.0663 |
| RRIRPRPPRLPRPRPRPCVEPRP | 0.021 |
| RRIRPRPPRLPRPRPRPCVHPRP | -0.434 |
| RRIRPRPPRLPRPRPRPCWPPRP | 0.144 |
| RRIRPRPPRLPRPRPRPCWTPRP | -0.397 |
| RRIRPRPPRLPRPRPRPDCNPRP | -0.319 |
| RRIRPRPPRLPRPRPRPDDLPRP | -0.296 |
| RRIRPRPPRLPRPRPRPDELPRP | -0.0607 |
| RRIRPRPPRLPRPRPRPDFEPRP | -0.235 |
| RRIRPRPPRLPRPRPRPDFFPRP | -0.0853 |
| RRIRPRPPRLPRPRPRPDFIPRP | -0.233 |
| RRIRPRPPRLPRPRPRPDFNPRP | 1.09 |
| RRIRPRPPRLPRPRPRPDGAPRP | 0.159 |
| RRIRPRPPRLPRPRPRPDHFPRP | -0.0536 |
| RRIRPRPPRLPRPRPRPDHIPRP | -0.0312 |
| RRIRPRPPRLPRPRPRPDHVPRP | -0.474 |
| RRIRPRPPRLPRPRPRPDHWPRP | 0.0752 |

| Sequence | shrunken log2 fold change |
| --- | --- |
| RRIRPRPPRLPRPRPRPDICPRP | 0.0683 |
| RRIRPRPPRLPRPRPRPDIIPRP | 0.00942 |
| RRIRPRPPRLPRPRPRPDMKPRP | -0.417 |
| RRIRPRPPRLPRPRPRPDNAPRP | 0.0303 |
| RRIRPRPPRLPRPRPRPDNKPRP | -0.778 |
| RRIRPRPPRLPRPRPRPDNWPRP | -0.121 |
| RRIRPRPPRLPRPRPRPDQSPRP | 0.021 |
| RRIRPRPPRLPRPRPRPDSIPRP | -0.598 |
| RRIRPRPPRLPRPRPRPDTSPRP | -0.738 |
| RRIRPRPPRLPRPRPRPDVLPRP | -0.709 |
| RRIRPRPPRLPRPRPRPDVSPRP | 0.0525 |
| RRIRPRPPRLPRPRPRPDWHPRP | -0.159 |
| RRIRPRPPRLPRPRPRPDWNPRP | -0.0666 |
| RRIRPRPPRLPRPRPRPDWVPRP | 0.0636 |
| RRIRPRPPRLPRPRPRPEAFPRP | -0.0543 |
| RRIRPRPPRLPRPRPRPECSPRP | -0.0845 |
| RRIRPRPPRLPRPRPRPEFVPRP | -0.0384 |
| RRIRPRPPRLPRPRPRPEGDPRP | 0.39 |
| RRIRPRPPRLPRPRPRPEGPPRP | -0.147 |
| RRIRPRPPRLPRPRPRPEGQPRP | 0.798 |
| RRIRPRPPRLPRPRPRPEIIPRP | -0.0816 |
| RRIRPRPPRLPRPRPRPEINPRP | -0.264 |
| RRIRPRPPRLPRPRPRPELFPRP | 0.25 |
| RRIRPRPPRLPRPRPRPELGPRP | 0.24 |
| RRIRPRPPRLPRPRPRPELPPRP | 0.175 |

| Sequence | shrunken log2 fold change |
| --- | --- |
| RRIRPRPPRLPRPRPRPELRPRP | -0.0276 |
| RRIRPRPPRLPRPRPRPENAPRP | 0.0319 |
| RRIRPRPPRLPRPRPRPEPGPRP | 0.27 |
| RRIRPRPPRLPRPRPRPEPYPRP | -0.309 |
| RRIRPRPPRLPRPRPRPEQDPRP | 0.0894 |
| RRIRPRPPRLPRPRPRPERKPRP | 0.489 |
| RRIRPRPPRLPRPRPRPESVPRP | 0.0986 |
| RRIRPRPPRLPRPRPRPETLPRP | -0.0144 |
| RRIRPRPPRLPRPRPRPEVQPRP | 0.0715 |
| RRIRPRPPRLPRPRPRPEWSPRP | -0.0838 |
| RRIRPRPPRLPRPRPRPFAHPRP | -0.124 |
| RRIRPRPPRLPRPRPRPFDSPRP | -0.0336 |
| RRIRPRPPRLPRPRPRPFDYPRP | -0.391 |
| RRIRPRPPRLPRPRPRPFEFPRP | 0.0458 |
| RRIRPRPPRLPRPRPRPFFQPRP | 0.0612 |
| RRIRPRPPRLPRPRPRPFGYPRP | -0.24 |
| RRIRPRPPRLPRPRPRPFHEPRP | -0.187 |
| RRIRPRPPRLPRPRPRPFKIPRP | 0.0869 |
| RRIRPRPPRLPRPRPRPFKTPRP | -0.199 |
| RRIRPRPPRLPRPRPRPFMLPRP | -0.378 |
| RRIRPRPPRLPRPRPRPFMMPRP | -0.845 |
| RRIRPRPPRLPRPRPRPFMRPRP | -0.1 |
| RRIRPRPPRLPRPRPRPFNRPRP | -0.436 |
| RRIRPRPPRLPRPRPRPFNYPRP | -0.269 |
| RRIRPRPPRLPRPRPRPFPKPRP | 0.166 |

| Sequence | shrunken log2 fold change |
| --- | --- |
| RRIRPRPPRLPRPRPRPFRFPRP | 0.0991 |
| RRIRPRPPRLPRPRPRPFTDPRP | -0.247 |
| RRIRPRPPRLPRPRPRPFTGPRP | -0.0818 |
| RRIRPRPPRLPRPRPRPFVEPRP | -0.0706 |
| RRIRPRPPRLPRPRPRPFVQPRP | -0.0832 |
| RRIRPRPPRLPRPRPRPFWAPRP | 0.0614 |
| RRIRPRPPRLPRPRPRPFYMPRP | -0.324 |
| RRIRPRPPRLPRPRPRPFYQPRP | -0.142 |
| RRIRPRPPRLPRPRPRPGCYPRP | 0.189 |
| RRIRPRPPRLPRPRPRPGDHPRP | -0.013 |
| RRIRPRPPRLPRPRPRPGDSPRP | 0.035 |
| RRIRPRPPRLPRPRPRPGDWPRP | 0.432 |
| RRIRPRPPRLPRPRPRPGEGPRP | 0.349 |
| RRIRPRPPRLPRPRPRPGETPRP | 0.117 |
| RRIRPRPPRLPRPRPRPGFCPRP | 0.295 |
| RRIRPRPPRLPRPRPRPGHYPRP | -0.0973 |
| RRIRPRPPRLPRPRPRPGKGPRP | 0.0267 |
| RRIRPRPPRLPRPRPRPGLIPRP | -0.0104 |
| RRIRPRPPRLPRPRPRPGLPPRP | 0.0398 |
| RRIRPRPPRLPRPRPRPGMGPRP | 0.149 |
| RRIRPRPPRLPRPRPRPGNYPRP | -0.36 |
| RRIRPRPPRLPRPRPRPGPFPRP | 0.574 |
| RRIRPRPPRLPRPRPRPGRRPRP | 0.123 |
| RRIRPRPPRLPRPRPRPGSGPRP | 1.05 |
| RRIRPRPPRLPRPRPRPGSRPRP | 0.144 |
